Data: publication PMC12562432, “G4 Oligonucleotide-Based Chaperones of Heterogeneous Nuclear Ribonucleoprotein A1”

Target: hnRNP A1 (UniProt P09651 1-251+304-372, internal_change)
Experiment: MST; 150 mM KCl; MST: 100 nM RED-labelled hnRNP A1, oligonucleotide titrated, 10 min incubation, working buffer with 150 mM KCl (40 mM HEPES-KOH pH 7.0 stated for the other assays); Hill model; temperature not stated
Settings: tags: RED dye label (MST); parallel G4 loop on short duplex stem GCUGC/GCAGC, 5' single-stranded UCAGUU

Chain of hnRNP A1 (P09651 other isoform, or with tags, fused parts or gaps): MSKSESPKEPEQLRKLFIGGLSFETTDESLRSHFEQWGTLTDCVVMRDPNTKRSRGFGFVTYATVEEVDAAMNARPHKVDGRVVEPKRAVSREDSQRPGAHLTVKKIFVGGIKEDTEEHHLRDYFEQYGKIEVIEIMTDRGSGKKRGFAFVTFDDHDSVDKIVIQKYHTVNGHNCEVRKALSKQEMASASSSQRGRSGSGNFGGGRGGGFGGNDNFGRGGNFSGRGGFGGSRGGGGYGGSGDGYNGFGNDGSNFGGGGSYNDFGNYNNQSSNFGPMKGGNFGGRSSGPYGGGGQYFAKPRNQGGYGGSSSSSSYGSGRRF

With UCAGUUGCUGCGGGUGGGUGGGUGGGGCAGC (structured_RNA) [chap-RNA] the Kd was 6 ± 1 µM.
